Assay results reported in the DeepSol protein solubility set.

assay: soluble on expression in E. coli; label from the status in PepcDB or PDB records

Sequence	soluble on expression in E. coli
MGHHHHHHSHGSHVKVKSFEKERQTEKRVLETELVDHVLQKLRTKVTDERNGREASDNLAVQNLKGSFSNASGLFEIHGATVVPIVSVLAPEKLSASTRRRYETQVQTRLQTSLANLHQKSSEIEILAVDLPKETILQFLSLEWDADEQAFNTTVKQLLSRLPKQRYLKLVCDEIYNIKVEKKVSVLFLYSYRDDYYRILF	not soluble
MGSDKIHHHHHHMDLTHIHPEFRHILGMSDKDRMAFLDEPRWIGYAQANRLLDNLRSLMEKPVRPRMPNLLIVGDSNNGKTTVIRRFQKLHGEGYVNEDAEPVKPVIVSEAPPSADEKGLYIAILERFWTPYRATDSASKLRYQVVHLMRDCHVRILVIDEFHSLLTGTVTKQREVMNAIKLLCNELAIPIVGVGIREAVRVLHTDPQHASRFDVVTLPPWELNPEFQQLVASFERVLPLKKPSLLHQSETVSLLFAISEGNLGNLHRLLVECAVEAIKTGTEKIDKSIIEGKQWLRPTHGIRELV	not soluble
DSLDEQRSRYAQIKQAWDNRQMDVVEQMMPGLKDYPLYPYLEYRQITDDLMNQPAVTVTNFVRANPTLPPARTLQSRFVNELARREDWRGLLAFSPEKPGTTEAQCNYYYAKWNTGQSEEAWQGAKELWLTGKSQPNACDKLFSVWRASGKQDPLAYLERIRLAMKAGNTGLVTVLAGQMPADYQTIASAIISLANNPNTVLTFARTTGATDFTRQMAAVAFASVARQDAENARLMIPSLAQAQQLNEDQIQELRDIVAWRLMGNDVTDEQAKWRDDAIMRSQSTSLIERRVRMALGTGDRRGLNTWLARLPMEAKEKDEWRYWQADLLLERGREAEAKEILHQLMQQRGFYPMVAAQRIGEEYELKIDKAPQNVDSALTQGPEMARVRELMYWNLDNTARSEWANLVKSKSKTEQAQLARYAFNNQWWDLSVQATIAGKLWDHLEERFPLAYNDLFKRYTSGKEIPQSYAMAIARQESAWNPKVKSPVGASGLMQIMPGTATHTVKMFSIPGYSSPGQLLDPETNINIGTSYLQYVYQQFGNNRIFSSAAYNAGPGRVRTWLGNSAGRIDAVAFVESIPFSETRGYVKNVLAYDAYYRYFMGDKPTLMSATEWGRRY	soluble
QPVACPDCGPTLRLVDASGAGLPGDPVDQTVELLTEGKIVAIKGLGGYHLAVDAANDAAVAELRRRKHRDEKPFAVMARDMEAVARFALVDSVEARLLTGPEHPIVLLRKRPSTILSGRVAPANGYIGTMLPYTPLHHLLLEERFAALVMTSGNLSDEPISYRDDEAVERLSAIADAFLVHDREIRTRIDDSVIRVFRGSPLFLRRSRGYVPREVRLPVEIP	not soluble
MGHHHHHHSHMQENQQITKKEQYNLNKLQKRLRRNVGEAIADFNMIEEGDRIMVCLSGGKDSYTMLEILRNLQQSAPINFSLVAVNLDQKQPGFPEHVLPEYLEKLGVEYKIVEENTYGIVKEKIPEGKTTCSLCSRLRRGILYRTATELGATKIALGHHRDDILQTLFLNMFYGGKMKGMPPKLMSDDGKHIVIRPLAYCREKDIQRFADAKAFPIIPCNLCGSQPNLQRQVIADMLRDWDKRYPGRIETMFSAMQNVVPSHLCDTNLFDFKGITHGSEVVNGGDLAFDREEIPLQPACWQPEEDENQLDELRLNVVEVK	soluble
VTGFGLRLAEAKARRGPLCLGIDPHPELLRGWDLATTADGLAAFCDICVRAFADFAVVKPQVAFFESYGAAGFAVLERTIAELRAADVLVLADAKRGDIGATMSAYATAWVGDSPLAADAVTASPYLGFGSLRPLLEVAAAHGRGVFVLAATSNPEGAAVQNAAADGRSVAQLVVDQVGAANEAAGPGPGSIGVVVGATAPQAPDLSAFTGPVLVPGVGVQGGRPEALGGLGGAASSQLLPAVAREVLRAGPGVPELRAAGERMRDAVAYLAAV	not soluble
GPGSMSNAKNGSETTYFTAIANRDVEALKALIAQNRNVNEVAQDPVLYHRTPLHICVWENFVEGAKLLLDAGADVNALDDLHDSPYLLSGAEGRQEIMEHIYKNAERTMRYGSQTSLRMKTSVPDHSIVNRFGGSALIPACERGHVEMVRLLLQKGVDVNHYNYYHWTGLLEAIELGGDDREHVDIVRLLIENGADVNQVDGAGKTPLYLARKRKYKRIAALLEAAGGHE	soluble
SKRVEVLLTQLPAYNRLKTPYEAELIETAKKMTAPGKGLLAADESTGSCSKRFAGIGLSNTAEHRRQYRALMLECEGFEQYISGVILHDETVYQKAKTGETFPQYLRRRGVVPGIKTDCGLEPLVEGAKGEQMTAGLDGYIKRAKKYYAMGCRFCKWRNVYKIQNGTVSEAVVRFNAETLARYAILSQLCGLVPIVEPEVMIDGTHDIETCQRVSQHVWSEVVSALHRHGVVWEGCLLKPNMVVPGAESGLKGHAEQVAEYTVKTLARVIPPALPGVTFLSGGLSEVMASEYLNAMNNCPLPRPWKLTFSYARALQSSAIKRWGGKESGVEAGRRAFMHRAKMNSLAQLGKYNRADDDKDSQSLYVAGNT	soluble
MGSDKIHHHHHHMAEDQTVLAIDIGGSHVKIGLSTDGEERKVESGKTMTGPEMVAAVTAMAKDMTYDVIAMGYPGPVVHNKPLREPVNLGEGWVGYDYEGAFGRPVRIVNDALMQAIGSYNGGRMLFLGLGTGLGAAMIVENVAQPMEIAHLPYRKGKTYEHYVSEAYREKKGNAKWQKRVQDVVERLSAALEPDEVVIGGGNVERLENLPPKCRRGDNAMAFEGGFRLWKNADLIV	not soluble
MKIFTVCQSGLGTSFMVQMNIQQILEEVGVDTDNFQIDHTDVGSASGDMADYFFVEKTLQDALGSIPAEKIIPLNAIIDYDETKEKVLKVLDDNGIAHQ	not soluble
MSAIIDPSTGKPFKADKQIMGEDIARAYTTGIRNPRPTSVASTITPQRLAGVLRSVIDGNDPEAYMTLAEEIEERDLHYAAQLRTRKFAVAAITPTVEAASDDAIDVLMAERAREIINDDQIPELFFDLLDGLGKGLAVVQILWDTKSTPWKPQDYKWVDPRYLRQDQQTLEQILLISEDAPMGAELEPYKFIIHTPRSKSGSVWRNGLARLVAVMYMLKSFTVRDWWAFAEVFGVPVRVGKYGANASESDISTLINAIGRIASDAGAVIPESMKLELIETAKGNGGDTLFENMARWCDEQISKAVLGQTMTADNGSSQSQATVHNEVRIDIAKWDARQLEASINEYLIKPYIILNWGEQLRYPKVRIKVPEPEDLQLLVNSLTPLIDRGLKVSASEMADKLGLGTVDADEDILLPFQTVGIQAMPTALNRANSQTIAINQVRNTAEREIDNLANEAMGEWEQVAEEFMNPIIDLANKSASYDEFAAGLPALQQQLGAEQFIAQMAQYMFQLRGLGDAQDG	soluble
MLRKQVYLTPEEEAKLKRLARATGRTEAEILRLALDLLPEEEAPLLLALAEEGLLEVPERAVTPARMEEAYRRYLDRVAGRGLGLSKAVLADREGR	soluble
MSLVMSGEKMKVIIVEDEFLAQQELSWLINTHSQMEIVGSFDDGLDVLKFLQHNKVDAIFLDINIPSLDGVLLAQNISQFAHKPFIVFITAWKEHAVEAFELEAFDYILKPYQESRIINMLQKLTTAWEQQNNAASGLASAAPRENDTINLIKDERIIVTSIHDIYYAEAHEKMTFVYTRRESFVMPMNITEEGHHHHHH	not soluble
MNKILIIISCILIMLTAFSCRRNVFNPNIPPRTEFIEDPIANLSIPSKDATIKVTPVEASINGYDSKSGQYGKMVYGHFEHYFEFKGHYYLTAAYQYIYGYTNEVIMIGNTTLMNYPNGHILEIDVNDGFKMKEVKANLGRTVPEYTRIAKIANGNAYQDDTYIYVQDSAGANYFKTSDFKSWTDTLSTTPPAGTTKREAVTMNRVQITANNGITYTYVYTGGGLQFSIERLDNRMKQLAQRLETKFTFKEEDFNNHHMFDIGINISTGTTADYRINPVEYIENDTNYIWIGKQSPHQIWLMPVKKDGKDYLIRFVEHCAGGGYYTIKMLETNINTYKKEAETALSKALAAVASDKPQAEIEQACYESIKADANYKANQYFYDVATKMGGLQGFWVGSPAVTEAGFISPNKPLTHYVIEFIDIQQ	not soluble
MRCIQLYVFYLISQLFTTGSAQKTFHYGVTGGEQFGRHEPSTRLSRFQSTPVSLNPLEDTLRVQQILKKLEDPGGLEIRRRSTSRRLHGVLTEPFGTPLVISGNSSEKKKKKPLKIKKRNGRRNPKSPEVNEYELQLAKQIEEDQLKFVEDEKNPMKYVVENGLLFRQSRYSPLARVEIPPVSGMSEISGISQRTSHSVGQTMQNPPRKRRRKQSYKLKNSKSSSESMFRTNVFRGNINRQIPAIPLPSPFSVAYGKPSFAIAREEDGKCYTNRFGYRCCDEALEALILKSYEKLRRKSNDLEDNLSKIASTLRRDSRQVFAKNLEAIVSTSNFGTSIPSDFSCKVELGPNRFVAQVFVPELGLDAKTTTRRHRIPYHELSREDLSDAADLVVSRNGIIVSKLL	not soluble
EHIEELLRNIRTQVLIKLIKPYTRIHIPFISKELNIDVADVESLLVQCILDNTIHGRIDQVNQLLELDHQKRGGARYTALDKW	soluble
MGSDKIHHHHHHMSDLSQRIAELSPEKLKLLVQRLNNKQGEILLRSPIVPQSRELNSFPLSSAQQRLWFIDQLQPGNSAYNISVPMRLGGWLNVAALEQSFKEVVKRHEVLRTTFTVVDGQPLQVIASSLSFTLPVVDLQKLPQNQREAEVLRLASEEAQQPFDLAQGPLLRATLLQLAAAEYALLLTMHHIIADGWAIGVLIREIADLYKAFSVGKPSPLSELSIQYVDFAVWQQQWLQGQLETQLAYWQQQLGSIPVVELPSDFPRSTTQTFSGAREALVLPKTLCDRLKTLNQRQGITLFMVLLAAFGALLNWYTDREDIVVGTDIANRNQAETKALIGFFANQLVLRTNLSKNPTFLELLERVREMTLEAYAHQDLPFDKLVDALNPKRELNRTPLFQVKLVLENTQTPSLELPGLTISSLKIENKTVQFDLLLELNETEQGLFGIWEYSTDLFERDSIVRLSKNFATLLAEVATHPEAKLSELKAVLNQVDKQQHLAKEQVYQNTIQQKLMNVKRRANSRQSTSGNTNHDKN	not soluble
MSLYISYSPLRITFGGGGTDVEPFLSKHGGAVVNATIDRGVSVRYIEDEFQLELSSRDFVRSYIVNMHRAASVTKMMADFLSEAGITNGRVIMSGDAPPGSGLGSSSSAVSALMNLVNSIRGRTVDPATLAEESYNLERNHFHVVLGKQDPYAIAYGGFKYMEFGADGVKREDLGQYSEFTTELQRRILLVYTGKTRQSSEVLMEQVKASEMGDEKTDRNLLQMKDVARRLRDAVVKNDMDEFAHQINRGWEIKKSLSSRITNDHIDRIIALALSNGAQAARLMGGGSQGFVLVMCKPENLNYIQRRMMSISNFVVRTSFDMKGTRMIGHEGHHHHHH	not soluble
MGSDKIHHHHHHMSTEHQLLVGLLKKLKDDALVLPTLPEVAMRVQEVVSRQDSSLKQVADIIGQDAAISARIIKVANSALYSRGNKAESINAAVSRIGLVQIKSITTSVAMEQLFISTNEMVWEVMDEVWKTSIEVTASSCAMLEMYNKRHPTKKLDRDTLTLAGLVHNIGALPVLTEAEVHPELFGRIDDLRSLVRKMQGPIGRAVLKTWDFAPEVMEVVERWADLHYLPEKVTYLDFIRSAAFYTGELRAGEELEERLGVFAQRGLPVTPEDLASDEFINMYHSIMQSYE	not soluble
MAHHHHHHMADLYDVLGILHDAEDDAIAKAYRRHSMAVNPQCNPDHPDPAALEKQFKHVSQAYVVLSNPKARGIYDLYGEEGVRHGGTGAQGIPGGIDLDAIDPYAVFRSFFGVDNPFQVIGEINGLRNNRHNFFSSTAVIPKSLVKAPSIEVQLPVTLEDVYYGAVRRASWKCSFVRQGNETVVEEFFELRVPKGAHAGDKFVVDGKGDWEEGRARGDVVVVLELLPHERFRREGDDLVVRVPITLREALCGVTLTVQTMEGTDVAVLIDEIVHPKYSRRVVGQGLPRNDEPSNPRGDLIVECDTTFPGFLTLEQKSELSRILDAK	not soluble
